Patent US8273357B2, “Antigen-carbohydrate conjugates” (Massachusetts Institute of Technology, priority 2004, dated 2012)

How the values were obtained:
langerin = langerin (Homo sapiens, UniProt Q9UJ71); conditions: solid-phase binding studies; cited from earlier work
mannose receptor = biological target: T1, mannose receptor (Homo sapiens, UniProt P22897); conditions: cited from earlier work
T1 sequence (P22897 19-1456): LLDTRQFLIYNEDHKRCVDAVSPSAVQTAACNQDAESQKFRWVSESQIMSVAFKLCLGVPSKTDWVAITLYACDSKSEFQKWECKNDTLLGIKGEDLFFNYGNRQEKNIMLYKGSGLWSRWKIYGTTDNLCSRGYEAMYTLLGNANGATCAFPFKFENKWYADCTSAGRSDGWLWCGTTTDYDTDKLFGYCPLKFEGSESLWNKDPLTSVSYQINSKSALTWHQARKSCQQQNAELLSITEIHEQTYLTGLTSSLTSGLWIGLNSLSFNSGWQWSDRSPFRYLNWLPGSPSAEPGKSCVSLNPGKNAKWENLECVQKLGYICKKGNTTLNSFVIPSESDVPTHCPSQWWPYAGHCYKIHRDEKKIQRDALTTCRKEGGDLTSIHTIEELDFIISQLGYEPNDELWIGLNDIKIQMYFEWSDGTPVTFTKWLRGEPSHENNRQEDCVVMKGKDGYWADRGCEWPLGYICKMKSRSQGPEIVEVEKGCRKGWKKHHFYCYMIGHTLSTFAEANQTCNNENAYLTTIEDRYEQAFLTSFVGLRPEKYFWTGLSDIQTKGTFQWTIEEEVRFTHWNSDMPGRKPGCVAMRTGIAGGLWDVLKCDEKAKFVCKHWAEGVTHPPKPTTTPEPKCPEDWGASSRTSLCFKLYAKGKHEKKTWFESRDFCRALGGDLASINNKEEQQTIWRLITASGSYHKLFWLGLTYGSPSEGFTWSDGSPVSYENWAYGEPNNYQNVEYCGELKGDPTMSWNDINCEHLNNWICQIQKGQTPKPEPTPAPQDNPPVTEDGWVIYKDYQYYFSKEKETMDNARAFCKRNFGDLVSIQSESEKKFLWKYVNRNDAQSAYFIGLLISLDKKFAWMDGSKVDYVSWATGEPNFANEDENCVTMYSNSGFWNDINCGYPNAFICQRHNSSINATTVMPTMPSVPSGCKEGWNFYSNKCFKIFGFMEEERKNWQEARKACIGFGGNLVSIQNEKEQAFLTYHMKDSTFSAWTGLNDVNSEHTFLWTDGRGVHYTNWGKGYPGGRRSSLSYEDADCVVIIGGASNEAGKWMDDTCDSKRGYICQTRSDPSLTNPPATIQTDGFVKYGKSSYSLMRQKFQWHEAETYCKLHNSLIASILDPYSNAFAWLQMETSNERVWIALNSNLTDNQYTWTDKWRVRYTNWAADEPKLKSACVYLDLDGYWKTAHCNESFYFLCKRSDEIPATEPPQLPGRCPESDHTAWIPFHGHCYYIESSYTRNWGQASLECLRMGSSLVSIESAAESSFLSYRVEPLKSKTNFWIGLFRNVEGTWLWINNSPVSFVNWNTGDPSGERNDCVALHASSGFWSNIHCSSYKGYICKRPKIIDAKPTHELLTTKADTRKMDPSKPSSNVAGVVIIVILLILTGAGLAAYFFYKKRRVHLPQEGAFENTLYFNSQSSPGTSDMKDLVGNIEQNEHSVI

B cells and macrophages = assay: Antigen presentation with B cells and macrophages (non-dendritic cells) as antigen-presenting cells; format: cell-based, mouse; conditions: in place of purified dendritic cells
Procedure: (§1) FIGS. 4A, 4B, 4C and 4D are graphs showing that CD11c^+ dendritic cells are the main antigen presenting cells presenting 3-1-targeted antigen. […] 1.5×10^4 Splenic CD11c^+ dendritic cells purified from C57BL/6 mice and 3.0×10^4 purified OTII T cells were incubated with OVA (starting concentration 300 μg mL^−1) or (OVA)-3-1 (starting concentration 25 μg mL^−1) in graded doses for eight-four hours with [^3H]thymidine (1 μCi) added for the last twelve hours. […] Purified CD11c^+ dendritic cells and OTII T cells were incubated with (OVA)-3-1 (25 μg mL^−1)±each potential inhibitor (100 μg mL^−1). T cell proliferation was determined as for FIG. 4A. […] CD11c^+ dendritic cells and OTII T cells were incubated with OVA or (OVA)-3-1±lipopolysaccharide ([…]). Also included are all ‘non-dendritic cells’ (macrophages and B cells) obtained during the purification of the dendritic cells. T cell proliferation was determined as described in FIG. 4A. […] Supernatants from cells described in FIG. 4C were collected at forty-eight and seventy-two hours and measured for IFN-γ by ELISA; the values presented are from the seventy-two hour time point. All measurements here were performed in triplicate. […]

IFN-γ = IFN-γ ELISA of supernatants from purified dendritic cell/OTII T cell assay; format: cell-based, mouse; conditions: average; 72 h supernatants
Procedure: as §1, with “point.” for “point. All measurements here were performed in triplicate.”
75-150 μL aliquots of supernatant were sampled from antigen presentation assays at 24, 48, and 72 hours. […] 25 μL of each supernatant were diluted 1:1 with PBS/1% BSA and analyzed in triplicate for IFN-γ, IL-10, and IL-4 using DuoSet ELISA reagents from R&D Systems. […]

Chain of langerin (Q9UJ71 whole entry, species assumed): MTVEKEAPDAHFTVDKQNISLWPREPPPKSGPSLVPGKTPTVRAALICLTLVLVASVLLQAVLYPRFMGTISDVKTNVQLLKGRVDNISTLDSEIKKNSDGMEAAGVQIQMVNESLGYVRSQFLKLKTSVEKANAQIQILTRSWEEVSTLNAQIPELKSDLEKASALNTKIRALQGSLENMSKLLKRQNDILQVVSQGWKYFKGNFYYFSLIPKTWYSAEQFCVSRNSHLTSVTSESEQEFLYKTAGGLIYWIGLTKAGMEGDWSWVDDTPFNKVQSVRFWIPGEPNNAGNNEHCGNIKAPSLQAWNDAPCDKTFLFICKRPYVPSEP

For “mBSA: BSA modified with approximately 25 mannose residues per protein molecule [reference compound]”, the binding by langerin (langerin) is given as “bound by langerin” and the “ligand for the mannose receptor” value (mannose receptor) is given as “nanomolar ligand”.

B1: (OVA)-3-1: ovalbumin modified via SMCC with nonasaccharide 3-1, average of three saccharides per OVA (conjugate)
chain: GSIGAASMEFCFDVFKELKVHHANENIFYCPIAIMSALAMVYLGAKDSTRTQINKVVRFDKLPGFGDSIEAQCGTSVNVHSSLRDILNQITKPNDVYSFSLASRLYAEERYPILPEYLQCVKELYRGGLEPINFQTAADQARELINSWVESQTNGIIRNVLQPSSVDSQTAMVLVNAIVFKGLWEKAFKDEDTQAMPFRVTEQESKPVQMMYQIGLFRVASMASEKMKILELPFASGTMSMLVLLPDEVSGLEQLESIINFEKLTEWTSSNVMEERKIKVYLPRMKMEEKYNLTSVLMAMGITDVFSSSANLSGISSAESLKISQAVHAAHAEINEAGREVVGSAEAGVDAASVSEEFRADHPFLFCIKHIATNAVLFFGRCVSP
With B1 the “T cell responses with B cells and macrophages as antigen-presenting cells” value (B cells and macrophages) was “negligible”.

B2: ovalbumin (protein, UniProt P01012 2-386, looked up)
Ovalbumin: GSIGAASMEFCFDVFKELKVHHANENIFYCPIAIMSALAMVYLGAKDSTRTQINKVVRFDKLPGFGDSIEAQCGTSVNVHSSLRDILNQITKPNDVYSFSLASRLYAEERYPILPEYLQCVKELYRGGLEPINFQTAADQARELINSWVESQTNGIIRNVLQPSSVDSQTAMVLVNAIVFKGLWEKAFKDEDTQAMPFRVTEQESKPVQMMYQIGLFRVASMASEKMKILELPFASGTMSMLVLLPDEVSGLEQLESIINFEKLTEWTSSNVMEERKIKVYLPRMKMEEKYNLTSVLMAMGITDVFSSSANLSGISSAESLKISQAVHAAHAEINEAGREVVGSAEAGVDAASVSEEFRADHPFLFCIKHIATNAVLFFGRCVSP
notes: model antigen, unmodified
With B2 the “less IFN-γ produced by T cells responding to OVA than to (OVA)-3-1” value (IFN-γ) was 40%.
